The values below come from paper PMC4027202.

What is called Kd is the free concentration of one partner at which half of the binding sites on the other are occupied at equilibrium, for simple one-to-one binding. A word on the stoichiometry N: it is the number of molecules, sites or subunits per partner or assembly.

Data set [1] deals with T1, Toscana virus nucleoprotein N (Toscana virus, UniProt P21701 1-253).
T1 sequence: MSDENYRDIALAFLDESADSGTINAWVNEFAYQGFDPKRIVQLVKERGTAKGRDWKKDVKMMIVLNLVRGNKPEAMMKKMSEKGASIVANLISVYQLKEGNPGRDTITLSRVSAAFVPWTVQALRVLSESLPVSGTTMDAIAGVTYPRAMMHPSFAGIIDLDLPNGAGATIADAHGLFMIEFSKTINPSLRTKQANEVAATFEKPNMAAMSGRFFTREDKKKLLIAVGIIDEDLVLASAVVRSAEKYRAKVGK
Put plainly: ITC; n=0.43; ITC: 20 mM Tris pH 7.5, 150 mM NaCl, 8 C; 400 uM RNA titrated into 30 uM apo N. The note with it: protein: recombinant; tags: N-terminal His6; chain copies: 6; single strand. In general terms: ITC needs no label: the signal is the heat of the interaction.

Data set [2] deals with the molecule itself. Put plainly: crystal structure; apo (RNA-free) N; 6.5% PEG 3350, 0.1-M sodium malonate, pH 4.5-5.2; space group P6, 12 molecules in the asymmetric unit, 3.3 Å.
Data set [3] concerns the molecule itself. As to the kind of experiment: crystal structure; N reconstituted with 9-mer RNA oligo1 (UGUGUUUCU); 11% PEG 3350, 0.1-M sodium malonate, pH 4.5-5.2; space group P1, 24 N and 12 RNA in the asymmetric unit, 2.6 Å.
Data set [4] deals with T2, RVFV nucleoprotein N (Rift Valley fever virus, UniProt D3K5I7 1-245).
T2 sequence: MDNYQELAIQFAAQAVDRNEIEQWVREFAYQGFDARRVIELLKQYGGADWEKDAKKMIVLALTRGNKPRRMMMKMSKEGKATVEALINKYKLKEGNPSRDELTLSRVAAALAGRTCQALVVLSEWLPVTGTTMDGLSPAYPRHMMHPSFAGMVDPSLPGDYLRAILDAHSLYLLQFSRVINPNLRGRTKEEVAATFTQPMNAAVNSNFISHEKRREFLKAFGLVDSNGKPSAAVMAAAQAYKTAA
Put plainly: ITC; n=0.70; main text gives 420 nM; ITC: 20 mM Tris pH 7.5, 150 mM NaCl, 8 C; […]. The note with it: protein: recombinant; single strand.

Data set [5] addresses T1, Toscana virus nucleoprotein N. As to the kind of experiment: ITC; n=0.49; ITC: 20 mM Tris pH 7.5, 150 mM NaCl, 8 C; 400 uM RNA titrated into 30 uM apo N. Conditions: protein: recombinant; tags: N-terminal His6; chain copies: 6; single strand.
The target is the same in data set [6]. As to the kind of experiment: ITC; n=0.51; ITC: 20 mM Tris pH 7.5, 150 mM NaCl, 8 C; 400 uM RNA titrated into 30 uM apo N. The note with it: protein: recombinant; tags: N-terminal His6; chain copies: 6; single strand.
The target is the same in data set [7]. Put plainly: ITC; n=0.50; ITC: 20 mM Tris pH 7.5, 150 mM NaCl, 8 C; 400 uM RNA titrated into 30 uM apo N. Conditions: protein: recombinant; tags: N-terminal His6; chain copies: 6; single strand.
Data set [8] shares this target. Put plainly: ITC; n=0.52; ITC: 20 mM Tris pH 7.5, 150 mM NaCl, 8 C; 400 uM RNA titrated into 30 uM apo N. Conditions: protein: recombinant; tags: N-terminal His6; chain copies: 6; single strand.
For data set [9] the target is unchanged. Put plainly: ITC; n=0.40; ITC: 20 mM Tris pH 7.5, 150 mM NaCl, 8 C; 400 uM RNA titrated into 30 uM apo N. The note with it: protein: recombinant; tags: N-terminal His6; chain copies: 6; single strand.

Consider UCUUUGUGU (ssRNA) [oligo2 (3' genomic consensus)], for which the Kd in data set [1] turned out to be 560 ± 70 nM.

B1: Toscana virus nucleoprotein N (natural protein)
chain: T1 sequence
notes: Hexameric ring in both crystal forms
Take B1: the “stoichiometry N” value in [2] and in [3] was 6 throughout.

Take UGUGUUUCU (ssRNA) [oligo1 (reverted 3' consensus 9-mer)]: the Kd in data set [4] was 400 ± 100 nM; in [5], 260 ± 20 nM.

For the molecule UAUGUUUCU (ssRNA) [oligo4 (G2A mutant of oligo1)], the dissociation constant (Kd) in [5] turned out to be 290 ± 40 nM.

Regarding UGUGUUUC (ssRNA) [oligo6 (8-mer from oligo1)], the dissociation constant Kd in data set [6] worked out at 710 ± 30 nM.

As for UGUGUU (ssRNA) [oligo8 (6-mer from oligo1)], the Kd in data set [7] turned out to be 8000 ± 900 nM.

On to UGUGUUU (ssRNA) [oligo7 (7-mer from oligo1)], for which, in [8], the Kd turned out to be 2700 ± 200 nM.

Turning to UUUUUUUUU (ssRNA) [oligo5 (polyU 9-mer)], in [9], the dissociation constant Kd came to 360 ± 40 nM.
